{
  "source": "patent US20090099826A1",
  "about": "(published 2009)",
  "proteins": {"B1": {"name": "caspase-9, wild-type, processed catalytic domain (residues 139-315 and 316-416) (protein)", "chain 1": "VGALESLRGNADLAYILSMEPCGHCLIINNVNFCRESGLRTRTGSNIDCEKLRRRFSSLHFMVEVKGDLTAKKMVLALLELAQQDHGALDCCVVVILSHGCQASHLQFPGAVYGTDGCPVSVEKIVNIFNGTSCPSLGGKPKLFFIQACGGEQKDHGFEVASTSPEDESPGSNPEPD", "chain 2": "ATPFQEGLRTFDQLDAISSLPTPSDIFVSYSTFPGFVSWRDPKSGSWYVETLDDIFEQWAHSEDLQSLLLRVANAVSVKGIYKQMPGCFNFLRKKLFFKTS"}, "B2": {"name": "Procaspase-9 zymogen (residues 139-416) (enzyme, mammalian, UniProt P55211 139-416, looked up)", "chain": "VGALESLRGNADLAYILSMEPCGHCLIINNVNFCRESGLRTRTGSNIDCEKLRRRFSSLHFMVEVKGDLTAKKMVLALLELAQQDHGALDCCVVVILSHGCQASHLQFPGAVYGTDGCPVSVEKIVNIFNGTSCPSLGGKPKLFFIQACGGEQKDHGFEVASTSPEDESPGSNPEPDATPFQEGLRTFDQLDAISSLPTPSDIFVSYSTFPGFVSWRDPKSGSWYVETLDDIFEQWAHSEDLQSLLLRVANAVSVKGIYKQMPGCFNFLRKKLFFKTS", "notes": "range 139-416; Used here for self-association; also called unprocessed procaspase-9 zymogen"}},
  "key": {"[1]": {"target": "T1, BIR3 domain of XIAP (residues 252-350), wild type", "T1 chain": "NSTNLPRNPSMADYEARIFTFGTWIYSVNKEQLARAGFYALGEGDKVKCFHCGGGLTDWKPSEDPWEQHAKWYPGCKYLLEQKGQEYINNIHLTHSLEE"}, "[2]": {"target": "XIAP-BIR3 point mutant G326E"}, "[3]": {"target": "XIAP-BIR3 point mutant H343A"}, "[4]": {"target": "XIAP-BIR3 point mutant L344A"}, "[5]": {"target": "XIAP-BIR3 point mutant P325G"}, "[6]": {"target": "the molecule itself", "experiment": "sedimentation equilibrium, analytical ultracentrifugation (self-association)", "procedure": "To accurately determine the basal state of caspase-9 in solution, the molecular weight of caspase-9 was examined by sedimentation equilibrium analysis using analytical ultra-centrifugation (Table 2). […] In addition, this analysis confirms that the XIAP-BIR3 domain forms a stable hetero-dimer with the caspase-9 monomer (Table 2).\nAnalytical ultracentrifugation. Protein samples were prepared in 10 mM Tris-HCl, pH 8.0, 100 mM NaCl, and 2 mm DTT. All sedimentation equilibrium experiments were carried out at 4° C. using a Beckman Optima XL-A analytical ultracentrifuge equipped with an An60 Ti rotor and using six-channel, 12 mm path length, charcoal-filled Epon centerpieces and quartz windows. Data were collected at four rotor speeds (10,000, 15,000, 20,000, and 25,000 rpm) and represent the average of twenty scans using a scan step-size of 0.001 cm. Partial specific volumes and solution density were calculate using the Sednterp program. Data were analyzed using the WinNONOLIN program from the Analytical Ultracentrifugation Facility at the University of Connecticut (Storrs, Conn.)."}},
  "data": [
    {"protein": "B1", "values": [
      {"measurement": "cleavage of procaspase-3 (C163A) by caspase-9, SDS-PAGE", "setting": "[1]", "value": "incubation with the WT BIR3 protein (residues 252-350) resulted in the efficient inhibition of the activity (lane 2)"},
      {"measurement": "cleavage of procaspase-3 (C163A) by caspase-9, SDS-PAGE", "setting": "[2]", "value": "led to loss of this inhibition as judged by the cleavage of procaspase-3 precursor"},
      {"measurement": "cleavage of procaspase-3 (C163A) by caspase-9, SDS-PAGE", "setting": "[3]", "value": "led to loss of this inhibition as judged by the cleavage of procaspase-3 precursor"},
      {"measurement": "cleavage of procaspase-3 (C163A) by caspase-9, SDS-PAGE", "setting": "[4]", "value": "led to loss of this inhibition as judged by the cleavage of procaspase-3 precursor"},
      {"measurement": "cleavage of procaspase-3 (C163A) by caspase-9, SDS-PAGE", "setting": "[5]", "value": "led to loss of this inhibition as judged by the cleavage of procaspase-3 precursor"}
    ]},
    {"protein": "B2", "values": [
      {"measurement": "binding result", "setting": "[6]", "value": "no binding (tested: 20 µM)"}
    ]}
  ]
}
